In patent US20250066490A1, “ANTI-CD70 ANTIBODIES, CONJUGATES THEREOF AND METHODS OF USING THE SAME” (ProfoundBio US Co., priority 2021, published 2025):

T1: CD70 ECD (Homo sapiens, UniProt P32970)
T1 sequence (P32970 39-193 limits assumed): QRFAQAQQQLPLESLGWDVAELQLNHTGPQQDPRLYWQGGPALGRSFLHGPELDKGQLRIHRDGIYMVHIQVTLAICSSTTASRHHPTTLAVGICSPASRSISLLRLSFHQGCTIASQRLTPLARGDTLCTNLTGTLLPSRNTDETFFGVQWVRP


Legend:
[1] = Hydrophobic interaction chromatography (HIC); format: physicochemical; settings: full IgG; for Retention time: hydrophobicity by HIC
Experimental: Antibodies were purified from cleared cell culture supernatants using Protein A chromatography (Protein A resin slurry, 4.5 mL, Bogen, Cat #18-0010-02). Briefly, supernatants were prepared for affinity chromatography and loaded onto the columns and allowed to flow completely through the resin. The columns were washed with binding buffer containing 0.15M NaCl and 0.2M PB, PH7.0. Antibody was eluted with elution buffer containing 0.15M NaCl, 0.1M Glycine and 0.2M PB, PH 3.0. Fractions were collected and neutralized by the addition of 1/10 volume of 1M Tris, PH9.0. The fractions were dialyzed for 2 hours against 1×PBS. Purified antibody was quantified by absorbance at A280. Samples from each step of the protein A chromatography were applied onto 12% SDS-PAGE gels for reduced and non-reduced electrophoresis. The hydrophobicity was assessed with hydrophobic interaction chromatography (HIC) on a TSK gel Butyl-NPR, 4.6×100 mm with Butyl-NPR (Tosoh corporation) using a Waters HPLC 2695 system.

[2] = test system: cynomolgus CD70 recombinant protein; assay: Antibody binding ELISA, cynomolgus CD70; settings: full IgG, FIG. 3
Experimental: The binding specificity of the CD70 antibodies was tested by ELISA according to a standard protocol. Briefly, 96-well micro-plates were coated with 2 μg/ml of human or cynomolgus CD70 recombinant protein in PBS at 100 μl per well and incubated overnight at 4° C. The plates were washed twice with TBS+0.5% Tween20. 200 μL of blocking buffer (2% BSA in PBS) was added to each well, and the plates were incubated at 37° C. for 2 hours. The plates were washed using the wash buffer mentioned above. Serially diluted antibodies were added to the ELISA plates using 100 μl per well, and the plates were incubated for 1 hour at room temperature. Then plates were washed 3 times. HRP conjugated anti-human Fc antibody solution (Sigma, I18885-2ML, diluted with blocking buffer) was added to the plates using 100 μl per well. The plates were incubated at room temperature for 1 hour and then washed 3 times. Then the TMB solution was added to plates using 100 μl per well and the plates were placed at RT for 5-15 mins. Then the stop solution (2M H2SO4) was added using 50 μl per well. The absorbance was measured at A450 and A630.

[3] = test system: 786-O, Caki-1, U251 and DBTRG-05MG cells; assay: Antibody binding by flow cytometry, statements across all four tumor cell lines; design: species or system human; settings: four cell lines
Experimental: The lead antibodies were tested for binding to renal carcinoma cells and glioblastoma cells expressing CD70 on the cell surface by flow cytometry. Cell lines 786-O (ATCC® CRL-1932™, provided by COBIOER), Caki-1 (ATCC® HTB-46™, provided by COBIOER), U251 and DBTRG-05MG (ATCC® CRL-2020™, provided by COBIOER) were each tested for antibody binding. 786-O cells were cultured with RPMI 1640 medium (Gibco, Cat #11875093) containing of 10% FBS (Gibco, Cat #10099141) while Caki-1 cells were cultured with McCoy's 5a Modified medium (Gibco, Cat #16600082) containing 10% FBS. U251 cells were cultured with MEM medium containing of 10% FBS and 1% NEAA+1 mM sodium pyruvate. DBTRG-05MG cells were cultured with DMEM medium (Gibco, Cat #C11995500BT) containing of 10% FBS. Each of the lead antibodies and the controls were incubated for 30 mins with the different cell lines (3×10^5 cells per well) in 0.2 ml FACS buffer (1×PBS with 0.1% BSA) at 4° C. Then, the cells were pelleted, washed, and incubated at 4° C. for 30 mins with 100 μl of 1:200 diluted PE-conjugated anti human Fc (Abcam, Ab98596) in FACS buffer. The cells were pelleted again, washed with PBS, resuspended in FACS buffer and analyzed by flow cytometer (Beckman, CytoFLEX).

[4] = test system: 786-O cells; assay: Internalization by FACS immune-fluorescence staining, 786-O; format: cell-based, human; settings: based on the cell binding affinity
Experimental: (§1) Briefly, 2×10^5 cells were harvested from a tissue culture flask by treatment with 0.25% Trypsin/EDTA and then incubated with 10 μg/ml of the lead antibodies or control antibodies in FACS buffer (1×PBS with 0.1% BSA) for 30 mins at 4° C. The cells were washed at 4° C. to remove unbound antibodies and kept on ice or shifted to 37° C. At the set time points (0 h, 4 h, 24 h), cells were incubated with PE-conjugated anti human Fc (Abcam, Ab98596) for 30 mins at 4° C. and then analyzed by flow cytometry. The internalization ratio was calculated by subtracting the 37° C. MFI from the 4° C. MFI, and then compared with 4° C. MFI.
(§2) Four cell lines ([…]), Caki-1, Raji, MCF-7) were utilized in the internalization assay. Target (CD70) copy numbers were determined via the QIFIKIT (DAKO, K0078). Briefly, cells were labeled with a primary mouse monoclonal antibody against CD70. Cells, Set-up beads, Calibration beads (from the kit) were then labeled in parallel with a fluorescein-conjugated anti-mouse secondary antibody. The fluorescence is correlated with the number of bound primary antibody molecules on the cells and on the beads. Samples were subsequently analyzed on the flow cytometer and copy number determined based on the calibration curve (Table 11). For internalization assay, 3×10^5 cells were incubated at 4° C. for 30 min with 10 µg/ml 2E7 in FACS buffer (1×PBS containing 0.1% BSA). Cells were washed at 4° C. to remove unbound material and kept on ice or shifted to 37° C. for different lengths of time. At progressive timepoints ([…], 0.5, 1, 2, 3, 4 hr) cells were stained with PE-conjugated anti-human Fc for 30 min at 4° C. and analyzed by flow cytometry. Internalization rate were calculated by subtracting the mean fluorescence intensity (MFI) of cell surface-bound antibody at 37° C. at each time point from the MFI of cell surface-bound antibody at 4° C. at time 0, then divided by the MFI of the cell surface-bound antibody at 4° C. at time 0.

[5] = test system: Caki-1 cells; assay: Internalization by FACS immune-fluorescence staining, Caki-1; format: cell-based, human; settings: Caki-1, based on the cell binding affinity
Experimental: as §1, §2

[6] = target: T1, CD70 ECD; assay: Biacore affinity measurement on immobilized CD70 ECD; format: binding; settings: 25° C., CD70 immobilized
Experimental: The immobilization of antigen CD70 ECD was performed at 25° C. with HBS-EP as the running buffer. Sensor chip surface of flow cells 1, 4 were activated by freshly mixed 50 mmol/L N-Hydroxy succinimide (NHS) and 200 mmol/L 1-ethyl-3-(3-dimethylaminopropyl) carbodiimide hydrochloride (EDC) for 420s (10 μL/min). Afterwards, CD70 antigen diluted in 10 mmol/L NaAC (pH 4.5) was injected into flow cell 4 to achieve conjugation of the appropriate Response Unit, while flow cell 1 was set as a blank. After the amine coupling reaction, the remaining active coupling sites on chip surface were blocked by 420s injection of 1 mol/L ethanolamine hydrochloride.
The assay was performed at 25° C. and the running buffer was HBS-EP. Diluted antibodies were injected over the surface of flow cells 1 and 4 during the association phase, followed by injecting running buffer as the dissociation phase. All the data were processed using Biacore T200 Evaluation software version 3.1. Flow cell 1 and a blank injection of buffer in each cycle were used as a double reference for Response Units subtraction. Kinetic data of the interaction between the antibodies and CD70 antigen were obtained through affinity measurement.

Molecule | hydrophobicity compared with the parent antibody 69A7 ([1]; HIC) | Retention time [1] [min] | cross binding activity to the cyno-antigen [2] | binding ability to the cell lines compared with antibody 69A7 [3] | absolute amount of antibody internalized into cell vs parent antibody 69A7 [4] | absolute amount of antibody internalized into cell vs parent antibody 69A7 [5] | Rmax (RU) [6] [RU] | ka [6] [M⁻¹ s⁻¹] | kd [6] [s⁻¹]
1H8: anti-CD70 antibody clone, VH SEQ 5 and VL SEQ 6; scFv and full human IgG1/kappa (antibody, V domains shown) VH: QVQLQESGPGLVKPSETLSLTCTVSGGSVSSDYYYWSWIRQPPGKGLEWLGYIYYSGSTNYNPSLKSRVTISVDTSKNQFSLKLRSVTTADTAVYYCARGDGDFMGVCFDYWGQGTLVTVSS VL: EIVLTQSPATLSLSPGERATLSCRASQSVSSYLAWYQQKPGQAPRLLIFDASNRATGIPARFSGSGSGTDFTLTISSLEPEDFAVYYCQQRSNWPLTFGGGTKVEIK | slightly more hydrophobic than the parent antibody 69A7 | 10.24 | better cross binding activity to the cyno-antigen than antibody 69A7 | slightly higher binding ability to the cell lines than that of antibody 69A7 | higher absolute amount of antibody internalized into cell than the parent antibody 69A7 | higher absolute amount of antibody internalized into cell than the parent antibody 69A7 | 38.81 | 25600 | 0.00112
2D2: anti-CD70 antibody clone, VH SEQ 9 and VL SEQ 10; scFv and full human IgG1/kappa (antibody, V domains shown, left off: another chain or arm of the molecule; large carriers; small tags and cut ends, scFv and full human IgG1/kappa) VH: QVQLQESGPGLVKPSETLSLTCTVSGGSVSSDYYYWSWIRQPPGKGLEWLGYIYYSGSTNYNPSLKSRVTISVDTSKNQFSLKLRSVTTADTAVYYCARGDGDYGGNCFDYWGQGTLVTVSS VL: EIVLTQSPATLSLSPGERATLSCRASQSVSSYLAWYQQKPGQAPRLLIFDASNRATGIPARFSGSGSGTDFTLTISSLEPEDFAVYYCQQRLKFPLTFGGGTKVEIK | – | 8.81 | better cross binding activity to the cyno-antigen than antibody 69A7 | slightly higher binding ability to the cell lines than that of antibody 69A7 | higher absolute amount of antibody internalized into cell than the parent antibody 69A7 | higher absolute amount of antibody internalized into cell than the parent antibody 69A7 | 38.83 | 11700 | 0.00105
